Measured values taken from patent publication US20040018972A1 (TRILLIUM THERAPEUTICS, published 2004).

How the values were obtained:
[1] = biological target: T1, CD14 on mouse dendritic cells (mouse, UniProt P10810 16-336); test: co-capping on DC: anti-CD14 staining reduced after capping of MD-1 with SH1.2.47 (FACS)
T1 construct: whole, on cells
T1 sequence (looked up): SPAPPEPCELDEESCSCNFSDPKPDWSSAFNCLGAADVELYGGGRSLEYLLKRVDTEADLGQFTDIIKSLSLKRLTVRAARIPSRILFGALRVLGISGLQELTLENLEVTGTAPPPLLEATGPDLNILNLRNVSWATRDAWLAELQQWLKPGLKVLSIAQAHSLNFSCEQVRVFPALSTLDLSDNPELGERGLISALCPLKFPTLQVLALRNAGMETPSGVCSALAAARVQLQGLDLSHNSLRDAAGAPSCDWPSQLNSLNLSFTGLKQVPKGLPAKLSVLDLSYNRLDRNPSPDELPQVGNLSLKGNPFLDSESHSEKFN
Procedure: (§1) FIG. 3 is FACS analysis of the effect of pretreatment of DC with anti-MD-1 antibody on cell surface expression of molecules on dendritic cells. Cells in the columns shown were preincubated (60 minutes at 4° C.) in medium, rat anti-DC26, or anti-MD-1 (SH1.2.47), prior to washing and incubation at 37° C. with anti-rat Ig. Thereafter cells were stained with different mAbs as in FIG. 2.

[2] = biological target: T2, CD80 (B7-1) on mouse dendritic cells (mouse, UniProt Q00609 38-306); test: co-capping: DC pre-incubated with SH1.2.47 and anti-rat Ig at 37 C, then FACS staining of the other surface molecules
T2 construct: whole, on cells
T2 sequence (looked up): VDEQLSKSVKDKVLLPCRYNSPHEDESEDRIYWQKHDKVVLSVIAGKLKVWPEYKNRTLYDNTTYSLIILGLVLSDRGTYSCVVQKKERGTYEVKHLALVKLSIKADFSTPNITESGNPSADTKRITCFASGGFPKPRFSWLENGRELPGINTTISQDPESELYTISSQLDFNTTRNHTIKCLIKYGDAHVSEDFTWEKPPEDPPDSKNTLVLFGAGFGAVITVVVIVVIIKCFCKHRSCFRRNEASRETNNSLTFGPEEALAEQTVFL
Procedure: as §1

[3] = biological target: T3, CD86 (B7-2) on mouse dendritic cells (mouse, UniProt P42082 24-309); test: as above
T3 construct: whole, on cells
T3 sequence (looked up): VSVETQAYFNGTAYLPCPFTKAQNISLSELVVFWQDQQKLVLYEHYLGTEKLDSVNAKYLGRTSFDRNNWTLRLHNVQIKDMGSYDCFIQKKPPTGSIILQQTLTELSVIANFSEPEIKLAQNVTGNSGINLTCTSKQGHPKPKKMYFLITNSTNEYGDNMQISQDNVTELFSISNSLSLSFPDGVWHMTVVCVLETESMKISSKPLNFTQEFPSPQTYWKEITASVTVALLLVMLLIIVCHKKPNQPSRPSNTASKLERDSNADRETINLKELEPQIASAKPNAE
Procedure: as §1

[4] = biological target: T4, DEC205 on mouse dendritic cells (mouse, UniProt Q60767 28-1723); test: as above
T4 construct: whole, on cells
Procedure: as §1

[5] = biological target: T5, OX-2 (CD200) on mouse dendritic cells (mouse, UniProt O54901 31-278); test: as above
T5 construct: whole, on cells
T5 sequence (looked up): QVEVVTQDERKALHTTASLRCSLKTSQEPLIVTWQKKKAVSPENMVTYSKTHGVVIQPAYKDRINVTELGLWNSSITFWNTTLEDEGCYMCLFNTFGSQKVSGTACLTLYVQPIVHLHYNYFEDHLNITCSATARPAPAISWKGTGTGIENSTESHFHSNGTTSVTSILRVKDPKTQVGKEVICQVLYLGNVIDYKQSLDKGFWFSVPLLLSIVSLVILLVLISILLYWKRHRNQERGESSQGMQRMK
Procedure: as §1

T4 sequence (Q60767 28-1723): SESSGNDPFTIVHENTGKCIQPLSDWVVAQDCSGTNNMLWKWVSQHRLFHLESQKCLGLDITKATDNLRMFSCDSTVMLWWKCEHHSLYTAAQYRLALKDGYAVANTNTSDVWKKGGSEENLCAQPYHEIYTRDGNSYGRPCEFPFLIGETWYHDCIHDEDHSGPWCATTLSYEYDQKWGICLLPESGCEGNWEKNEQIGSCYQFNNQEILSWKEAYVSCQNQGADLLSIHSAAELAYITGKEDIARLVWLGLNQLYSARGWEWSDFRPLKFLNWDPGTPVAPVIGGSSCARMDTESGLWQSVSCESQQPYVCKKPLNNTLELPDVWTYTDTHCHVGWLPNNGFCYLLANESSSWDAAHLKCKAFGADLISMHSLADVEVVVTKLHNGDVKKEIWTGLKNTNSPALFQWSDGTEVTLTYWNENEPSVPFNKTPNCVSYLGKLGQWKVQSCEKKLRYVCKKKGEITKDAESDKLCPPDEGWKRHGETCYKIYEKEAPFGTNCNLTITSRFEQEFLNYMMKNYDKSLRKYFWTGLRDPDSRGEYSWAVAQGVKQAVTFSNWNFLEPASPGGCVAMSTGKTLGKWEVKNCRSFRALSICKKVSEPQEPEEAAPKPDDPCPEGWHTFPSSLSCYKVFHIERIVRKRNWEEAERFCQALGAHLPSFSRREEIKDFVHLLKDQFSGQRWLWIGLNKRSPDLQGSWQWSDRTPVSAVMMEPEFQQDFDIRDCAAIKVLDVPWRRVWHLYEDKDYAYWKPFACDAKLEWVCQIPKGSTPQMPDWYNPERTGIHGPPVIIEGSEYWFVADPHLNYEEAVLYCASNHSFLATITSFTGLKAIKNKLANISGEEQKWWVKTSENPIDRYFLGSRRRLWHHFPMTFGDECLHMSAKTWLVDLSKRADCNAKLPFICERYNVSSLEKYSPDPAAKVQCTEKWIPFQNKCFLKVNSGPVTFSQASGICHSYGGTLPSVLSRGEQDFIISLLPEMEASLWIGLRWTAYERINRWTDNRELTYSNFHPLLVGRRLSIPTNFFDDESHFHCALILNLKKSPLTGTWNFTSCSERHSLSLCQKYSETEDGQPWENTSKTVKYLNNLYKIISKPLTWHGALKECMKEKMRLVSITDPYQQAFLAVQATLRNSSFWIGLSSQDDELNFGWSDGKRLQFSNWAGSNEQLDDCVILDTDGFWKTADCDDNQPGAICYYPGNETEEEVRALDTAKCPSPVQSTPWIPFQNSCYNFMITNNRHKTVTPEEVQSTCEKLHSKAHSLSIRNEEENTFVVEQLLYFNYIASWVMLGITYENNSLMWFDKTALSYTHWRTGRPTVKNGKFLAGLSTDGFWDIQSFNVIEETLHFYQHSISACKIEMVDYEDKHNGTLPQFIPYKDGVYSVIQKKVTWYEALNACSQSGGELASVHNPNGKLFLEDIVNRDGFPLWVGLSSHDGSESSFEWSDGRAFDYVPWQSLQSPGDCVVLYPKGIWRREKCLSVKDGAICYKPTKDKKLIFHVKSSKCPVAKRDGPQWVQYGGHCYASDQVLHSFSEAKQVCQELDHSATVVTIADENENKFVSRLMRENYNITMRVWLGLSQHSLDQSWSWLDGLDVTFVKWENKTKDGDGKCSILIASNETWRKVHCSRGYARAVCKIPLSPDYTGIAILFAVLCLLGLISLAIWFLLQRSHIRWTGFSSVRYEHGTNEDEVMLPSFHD

B1: murine MD-1 (other, UniProt O88188 20-162, looked up)
chain: DHGSENGWPKHTACNSGGLEVVYQSCDPLQDFGLSIDQCSKQIQSNLNIRFGIILRQDIRKLFLDITLMAKGSSILNYSYPLCEEDQPKFSFCGRRKGEQIYYAGPVNNPGLDVPQGEYQLLLELYNENRATVACANATVTSS
notes: whole, on cells; also called mouse MD-1
binding result [1]: binds | binding result [2]: no binding | binding result [3]: no binding | binding result [4]: no binding | binding result [5]: no binding
